Assay results: article doi:10.1101/2021.04.26.441533 (bioRxiv, 2021)

Columns and labels:
Test in all cases: single-molecule magnetic tweezers
[1] = biological target: T1, Full-length vinculin (FL-vinculin) (UniProt P18206-2 1-1066)
T1 sequence (looked up): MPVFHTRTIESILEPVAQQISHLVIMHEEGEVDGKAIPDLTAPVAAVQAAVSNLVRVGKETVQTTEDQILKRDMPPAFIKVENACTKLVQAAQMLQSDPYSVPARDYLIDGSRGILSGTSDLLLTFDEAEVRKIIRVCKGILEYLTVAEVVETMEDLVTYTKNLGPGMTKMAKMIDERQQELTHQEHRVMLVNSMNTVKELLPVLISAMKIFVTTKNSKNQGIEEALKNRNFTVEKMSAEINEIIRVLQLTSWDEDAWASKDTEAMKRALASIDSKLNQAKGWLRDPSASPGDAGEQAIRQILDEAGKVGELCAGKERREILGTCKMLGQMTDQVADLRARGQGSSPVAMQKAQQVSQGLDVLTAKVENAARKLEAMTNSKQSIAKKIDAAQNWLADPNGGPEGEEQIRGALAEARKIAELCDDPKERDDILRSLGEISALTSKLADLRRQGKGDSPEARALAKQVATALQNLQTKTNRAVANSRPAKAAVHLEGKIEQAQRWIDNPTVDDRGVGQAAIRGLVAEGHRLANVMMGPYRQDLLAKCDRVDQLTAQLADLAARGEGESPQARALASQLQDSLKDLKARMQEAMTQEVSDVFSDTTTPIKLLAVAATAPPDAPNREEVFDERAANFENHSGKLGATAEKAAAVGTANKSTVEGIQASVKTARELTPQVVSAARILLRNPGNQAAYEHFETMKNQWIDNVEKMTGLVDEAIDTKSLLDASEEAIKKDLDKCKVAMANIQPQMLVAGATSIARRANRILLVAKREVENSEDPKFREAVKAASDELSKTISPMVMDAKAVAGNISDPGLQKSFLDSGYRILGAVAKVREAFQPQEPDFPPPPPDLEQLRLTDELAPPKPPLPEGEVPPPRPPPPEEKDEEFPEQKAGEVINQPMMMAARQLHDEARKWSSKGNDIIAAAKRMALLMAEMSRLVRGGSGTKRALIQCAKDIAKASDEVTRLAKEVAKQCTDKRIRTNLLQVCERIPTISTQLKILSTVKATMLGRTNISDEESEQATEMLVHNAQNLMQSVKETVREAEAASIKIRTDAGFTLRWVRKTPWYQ

vinculin T12 mutant = biological target: T2, vinculin T12 mutant (UniProt P18206-2 1-1066, D974A | K975A | R976A | R978A)
T2 sequence (looked up): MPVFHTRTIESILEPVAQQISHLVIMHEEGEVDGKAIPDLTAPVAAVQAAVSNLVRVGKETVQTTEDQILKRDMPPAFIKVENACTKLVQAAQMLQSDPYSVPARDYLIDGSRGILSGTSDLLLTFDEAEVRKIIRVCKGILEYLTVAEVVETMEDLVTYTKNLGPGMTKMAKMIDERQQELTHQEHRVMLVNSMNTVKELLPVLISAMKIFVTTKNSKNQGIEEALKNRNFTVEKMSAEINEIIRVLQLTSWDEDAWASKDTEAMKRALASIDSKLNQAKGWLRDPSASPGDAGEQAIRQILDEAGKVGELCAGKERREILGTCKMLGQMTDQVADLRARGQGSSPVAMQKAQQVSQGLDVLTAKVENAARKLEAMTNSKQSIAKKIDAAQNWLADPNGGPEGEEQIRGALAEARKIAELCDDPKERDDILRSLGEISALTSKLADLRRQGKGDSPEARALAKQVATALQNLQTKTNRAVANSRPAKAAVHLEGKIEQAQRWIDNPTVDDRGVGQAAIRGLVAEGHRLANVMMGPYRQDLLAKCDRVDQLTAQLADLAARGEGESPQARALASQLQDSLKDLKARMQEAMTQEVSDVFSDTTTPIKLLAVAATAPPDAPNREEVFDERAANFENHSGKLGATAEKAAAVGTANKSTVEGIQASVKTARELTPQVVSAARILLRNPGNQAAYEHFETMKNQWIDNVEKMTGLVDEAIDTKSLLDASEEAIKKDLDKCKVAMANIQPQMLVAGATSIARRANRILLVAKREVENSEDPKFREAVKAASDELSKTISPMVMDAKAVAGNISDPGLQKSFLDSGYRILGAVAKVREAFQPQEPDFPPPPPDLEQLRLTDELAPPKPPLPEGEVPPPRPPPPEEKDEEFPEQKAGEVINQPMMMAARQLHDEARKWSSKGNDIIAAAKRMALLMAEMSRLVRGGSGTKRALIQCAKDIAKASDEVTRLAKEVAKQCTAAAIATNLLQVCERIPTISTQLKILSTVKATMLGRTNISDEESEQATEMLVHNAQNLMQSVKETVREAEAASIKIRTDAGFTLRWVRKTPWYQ

vinculin head (D1-D4) = biological target: T3, vinculin head (D1-D4) (UniProt P18206-2 1-835)
T3 sequence (looked up): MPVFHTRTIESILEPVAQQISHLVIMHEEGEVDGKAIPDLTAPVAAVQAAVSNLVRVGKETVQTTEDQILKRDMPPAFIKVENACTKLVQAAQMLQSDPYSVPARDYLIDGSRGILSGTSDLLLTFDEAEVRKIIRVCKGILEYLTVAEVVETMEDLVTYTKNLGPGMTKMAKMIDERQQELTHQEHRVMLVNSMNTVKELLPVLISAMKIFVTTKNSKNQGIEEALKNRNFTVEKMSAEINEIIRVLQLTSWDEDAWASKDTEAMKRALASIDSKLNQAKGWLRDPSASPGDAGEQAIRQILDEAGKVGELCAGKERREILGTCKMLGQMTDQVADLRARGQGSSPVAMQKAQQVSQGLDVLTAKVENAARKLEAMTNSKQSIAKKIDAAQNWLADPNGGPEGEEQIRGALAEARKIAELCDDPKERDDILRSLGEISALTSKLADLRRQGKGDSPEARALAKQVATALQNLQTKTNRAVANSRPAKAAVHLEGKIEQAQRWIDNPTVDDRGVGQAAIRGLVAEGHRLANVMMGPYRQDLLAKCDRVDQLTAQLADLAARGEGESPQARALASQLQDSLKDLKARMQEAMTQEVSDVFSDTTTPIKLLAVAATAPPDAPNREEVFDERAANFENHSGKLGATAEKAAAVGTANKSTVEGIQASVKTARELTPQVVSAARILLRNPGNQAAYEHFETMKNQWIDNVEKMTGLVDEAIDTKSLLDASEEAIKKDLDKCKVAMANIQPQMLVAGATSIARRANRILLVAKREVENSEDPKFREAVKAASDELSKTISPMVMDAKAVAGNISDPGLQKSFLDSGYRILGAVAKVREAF

- koff [1]: 0.014 s⁻¹
- kon [1]: 1e+06 M⁻¹ s⁻¹
- Kd (vinculin T12 mutant): 1.9 nM
- koff (vinculin T12 mutant): 0.021 s⁻¹
- kon (vinculin T12 mutant): 1.1e+07 M⁻¹ s⁻¹
- Kd (vinculin head (D1-D4)): 0.6 nM
- koff (vinculin head (D1-D4)): 0.0022 s⁻¹
- kon (vinculin head (D1-D4)): 3.7e+06 M⁻¹ s⁻¹
B1: talin R4-R6 domains (stretchable talin R4-R6 fragment) (domain or fragment, UniProt P26039 913-1357, looked up)
chain: LVQRLEHAAKQAAASATQTIAAAQHAASAPKASAGPQPLLVQSCKAVAEQIPLLVQGVRGSQAQPDSPSAQLALIAASQSFLQPGGKMVAAAKASVPTIQDQASAMQLSQCAKNLGTALAELRTAAQKAQEACGPLEMDSALSVVQNLEKDLQEIKAAARDGKLKPLPGETMEKCTQDLGNSTKAVSSAIAKLLGEIAQGNENYAGIAARDVAGGLRSLAQAARGVAALTSDPAVQAIVLDTASDVLDKASSLIEEAKKASGHPGDPESQQRLAQVAKAVTQALNRCVSCLPGQRDVDNALRAVGDASKRLLSDSLPPSTGTFQEAQSRLNEAAAGLNQAATELVQASRGTPQDLARASGRFGQDFSTFLEAGVEMAGQAPSQEDRAQVVSNLKGISMSSSKLLLAAKALSTDPASPNLKSQLAAAARAVTDSINQLITMCTQQA
modifications: N-terminus linked to a superparamagnetic bead through a 572-bp double strand DNA linker
